We go through four molecules from patent US20230340151A1 (Pfizer, published 2023).

For orientation: Kd means the equilibrium constant for the complex coming apart. For orientation: EC50 means the concentration that produces a half-maximal response. Read a low EC50 as a more potent agent.

Experiment [1] has as its target Human CD3 on naive human T cells (human, UniProt P07766 23-207). Briefly: cell-based or functional assay.
The target of experiment [2] is T1, Human CD3 epsilon-delta (human).
T1 construct: Single-chain epsilon-linker-delta with His6; also called huCD3
T1 chain: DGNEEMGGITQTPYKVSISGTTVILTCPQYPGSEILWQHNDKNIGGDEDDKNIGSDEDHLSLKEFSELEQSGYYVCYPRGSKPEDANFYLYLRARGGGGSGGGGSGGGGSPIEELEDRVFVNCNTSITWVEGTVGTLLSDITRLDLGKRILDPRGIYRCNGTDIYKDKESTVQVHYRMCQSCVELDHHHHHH
Description: SPR, recombinant human CD3. On the technique in general: Surface plasmon resonance follows binding to a sensor surface in real time, without labels.

For experiment [3], the target named is T2, Human GUCY2C ECD-muIgG2a (human).
T2 construct: also called human GUCY2c ECD-mouse IgG2a Fc fusion protein; huGUCY2c-mIgG2a
T2 sequence (chain, as listed by the source limits assumed): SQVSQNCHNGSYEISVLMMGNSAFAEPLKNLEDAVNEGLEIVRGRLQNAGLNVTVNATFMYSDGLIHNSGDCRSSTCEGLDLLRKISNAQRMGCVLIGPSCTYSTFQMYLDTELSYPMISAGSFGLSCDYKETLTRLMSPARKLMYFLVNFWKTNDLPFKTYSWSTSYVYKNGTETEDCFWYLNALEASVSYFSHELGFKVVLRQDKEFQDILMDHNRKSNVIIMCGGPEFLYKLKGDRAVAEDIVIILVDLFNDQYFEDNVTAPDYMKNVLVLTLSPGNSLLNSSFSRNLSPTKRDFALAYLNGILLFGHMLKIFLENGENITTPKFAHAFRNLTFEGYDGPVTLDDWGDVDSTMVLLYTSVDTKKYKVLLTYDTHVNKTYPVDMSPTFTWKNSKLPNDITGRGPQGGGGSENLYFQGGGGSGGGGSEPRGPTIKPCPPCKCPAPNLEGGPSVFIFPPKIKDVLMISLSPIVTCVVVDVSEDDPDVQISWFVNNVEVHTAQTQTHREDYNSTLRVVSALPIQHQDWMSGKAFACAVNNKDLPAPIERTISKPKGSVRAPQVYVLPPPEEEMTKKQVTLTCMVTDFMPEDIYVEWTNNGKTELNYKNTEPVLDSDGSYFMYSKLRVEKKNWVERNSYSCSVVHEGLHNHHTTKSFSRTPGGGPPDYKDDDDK
Description: huCD3-huGUCY2C sandwich ELISA (CD3 coated).
Description: To test bispecific binding to both GUCY2c and CD3, a sandwich ELISA was performed. […] Plates were washed 3× with PBS+0.05% TWEEN20 and blocked with PBS+3% milk for 1 hr, shaking at RT. Blocking solution was removed and samples serially diluted in block were added and incubated for 1 hr shaking at RT. Plates were washed 3x as before and purified human, cynomolgus or murine GUCY2c ECD-mouse IgG2a Fc fusion protein was added to the plate at 1 μg/ml and incubated at RT, shaking for 1 hr. Plates were washed 3× as before and a secondary antibody was added (goat anti-mouse IgG Fc-HRP—Thermo Scientific, diluted 1:4,000), followed by shaking for 1 hr at RT. Plates were washed as before and signal was developed using TMB, the reaction stopped with H2SO4 and the absorbance read at 450 nm on an EnVision® plate reader (Perkin Elmer). An alternative detection method was also periodically employed in place of TMB/H2SO4.

B1: GUCY2C-1679 (bispecific antibody)
chain 1: DIQLTQSPSSLSASVGDRVTITCRASESVDYYGSSLLQWYQQKPGKAPKLLIYAASKLASGVPSRFSGSGSGTDFTLTISSLQPEDFATYYCQQTRKAYTFGQGTKLEIKGGGSGGGGEVQLVESGGGLVQPGGSLRLSCAASGFTFSDYYMTWVRQAPGKGLEWVAFIRNQARGYTSDHNPSVKGRFTISRDNAKNSLYLQMNSLRAEDTAVYYCARDRPSYYVLDYWGQGTTVTVSSGCPPCPAPEAAGAPSVFLFPPKPKDTLMISRTPEVTCVVVDVSHEDPEVKFNWYVDGVEVHNAKTKPREEQYNSTYRVVSVLTVLHQDWLNGKEYKCKVSNKALPAPIEKTISKAKGQPREPQVCTLPPSREEMTKNQVSLWCLVKGFYPSDIAVEWESNGQPENNYKTTPPVLDSDGSFFLYSKLTVDKSRWQQGNVFSCSVMHEALHNHYTQKSLSLSPG
chain 2: DIQMTQSPSSLSASVGDRVTITCTSSQSLFNVRSGKNYLAWYQQKPGKAPKLLIYWASDRESGVPSRFSGSGSGTDFTLTISSLQPEDFATYYCKQSYDLFTFGGGTKVEIKGGGGSGGGGEVQLVESGGGLVQPGGSLRLSCAASGFTFSSYWMHWVRQAPGKGLEWIGEIKPSNELTNVHEKFKDRFTISVDKAKNSAYLQMNSLRAEDTAVYYCTRTITTTEGYWFFDVWGQGTLVTVSSGCPPCPAPEAAGAPSVFLFPPKPKDTLMISRTPEVTCVVVDVSHEDPEVKFNWYVDGVEVHNAKTKPREEQYNSTYRVVSVLTVLHQDWLNGKEYKCKVSNKALPAPIEKTISKAKGQPREPQVYTLPPCREEMTKNQVSLSCAVKGFYPSDIAVEWESNGQPENNYKTTPPVLDSDGSFFLVSKLTVDKSRWQQGNVFSCSVMHEALHNHYTQKSLSLSPG
On to B1, for which the “In vitro Cytotoxicity (nM), T-cell retargeting assay” value (“In vitro Cytotoxicity (nM)” below) in experiment [1] came to 0.194 nM. Also, the Kd in experiment [2] was found to be 72 nM.

B2: GUCY2C-0250 (bispecific antibody)
chain 1: DIQLTQSPSSLSASVGDRVTITCRASESVDYYGTSLMQWYQQKPGKAPKLLIYAASNVESGVPSRFSGSGSGTDFTLTISSLQPEDFATYYCQQTRKVYTFGQGTKLEIKGGGSGGGGEVQLVESGGGLVQPGGSLRLSCAASGFTFSDYYMTWVRQAPGKGLEWVAFIRNRARGYTSDHNPSVKGRFTISRDNAKNSLYLQMNSLRAEDTAVYYCARDRPSYYVLDYWGQGTTVTVSSGCPPCPAPEAAGAPSVFLFPPKPKDTLMISRTPEVTCVVVDVSHEDPEVKFNWYVDGVEVHNAKTKPREEQYNSTYRVVSVLTVLHQDWLNGKEYKCKVSNKALPAPIEKTISKAKGQPREPQVCTLPPSREEMTKNQVSLWCLVKGFYPSDIAVEWESNGQPENNYKTTPPVLDSDGSFFLYSKLTVDKSRWQQGNVFSCSVMHEALHNHYTQKSLSLSPG
chain 2: DIQMTQSPSSLSASVGDRVTITCTSSQSLFNVRSRKNYLAWYQQKPGKAPKLLIYWASTRESGVPSRFSGSGSGTDFTLTISSLQPEDFATYYCKQSYDLFTFGGGTKVEIKGGGSGGGGEVQLVESGGGLVQPGGSLRLSCAASGYTFTSYWMHWVRQAPGKGLEWIGEIKPSNGLTNYIEKFKNRFTISVDKAKNSAYLQMNSLRAEDTAVYYCTRTITTTEGYWFFDVWGQGTLVTVSSGCPPCPAPEAAGAPSVFLFPPKPKDTLMISRTPEVTCVVVDVSHEDPEVKFNWYVDGVEVHNAKTKPREEQYNSTYRVVSVLTVLHQDWLNGKEYKCKVSNKALPAPIEKTISKAKGQPREPQVYTLPPCREEMTKNQVSLSCAVKGFYPSDIAVEWESNGQPENNYKTTPPVLDSDGSFFLVSKLTVDKSRWQQGNVFSCSVMHEALHNHYTQKSLSLSPG
For the molecule B2, the EC50 in experiment [3] worked out at 76.9 nM.

B3: GUCY2C-1680 (bispecific antibody)
chain 1: DIQLTQSPSSLSASVGDRVTITCRASESVDYYGSSLLQWYQQKPGKAPKLLIYAASKLASGVPSRFSGSGSGTDFTLTISSLQPEDFATYYCQQTRKAYTFGQGTKLEIKGGGSGGGGEVQLVESGGGLVQPGGSLRLSCAASGFTFSDYYMTWVRQAPGKGLEWVAFIRNQARGYTSDHNPSVKGRFTISRDNAKNSLYLQMNSLRAEDTAVYYCARDRPSYYVLDYWGQGTTVTVSSGCPPCPAPEAAGAPSVFLFPPKPKDTLMISRTPEVTCVVVDVSHEDPEVKFNWYVDGVEVHNAKTKPREEQYNSTYRVVSVLTVLHQDWLNGKEYKCKVSNKALPAPIEKTISKAKGQPREPQVCTLPPSREEMTKNQVSLWCLVKGFYPSDIAVEWESNGQPENNYKTTPPVLDSDGSFFLYSKLTVDKSRWQQGNVFSCSVMHEALHNHYTQKSLSLSPG
chain 2: DIQMTQSPSSLSASVGDRVTITCTSSESLFNVRSGKNYLAWYQQKPGKAPKLLIYWASDRESGVPSRFSGSGSGTDFTLTISSLQPEDFATYYCKQSYDLFTFGGGTKVEIKGGGGSGGGGEVQLVESGGGLVQPGGSLRLSCAASGFTFSSYWMHWVRQAPGKGLEWIGEIKPSNELTNVHEKFKDRFTISVDKAKNSAYLQMNSLRAEDTAVYYCTRTITTTEGYWFFDVWGQGTLVTVSSGCPPCPAPEAAGAPSVFLFPPKPKDTLMISRTPEVTCVVVDVSHEDPEVKFNWYVDGVEVHNAKTKPREEQYNSTYRVVSVLTVLHQDWLNGKEYKCKVSNKALPAPIEKTISKAKGQPREPQVYTLPPCREEMTKNQVSLSCAVKGFYPSDIAVEWESNGQPENNYKTTPPVLDSDGSFFLVSKLTVDKSRWQQGNVFSCSVMHEALHNHYTQKSLSLSPG
B3: the “In vitro Cytotoxicity (nM)” value in experiment [1] is 0.385 nM. The Kd in experiment [2] stood at 78.6 nM.

B4: GUCY2C-1678 (bispecific antibody)
chain 1: DIQLTQSPSSLSASVGDRVTITCRASESVDYYGSSLLQWYQQKPGKAPKLLIYAASKLASGVPSRFSGSGSGTDFTLTISSLQPEDFATYYCQQTRKAYTFGQGTKLEIKGGGSGGGGEVQLVESGGGLVQPGGSLRLSCAASGFTFSDYYMTWVRQAPGKGLEWVAFIRNQARGYTSDHNPSVKGRFTISRDNAKNSLYLQMNSLRAEDTAVYYCARDRPSYYVLDYWGQGTTVTVSSGCPPCPAPEAAGAPSVFLFPPKPKDTLMISRTPEVTCVVVDVSHEDPEVKFNWYVDGVEVHNAKTKPREEQYNSTYRVVSVLTVLHQDWLNGKEYKCKVSNKALPAPIEKTISKAKGQPREPQVCTLPPSREEMTKNQVSLWCLVKGFYPSDIAVEWESNGQPENNYKTTPPVLDSDGSFFLYSKLTVDKSRWQQGNVFSCSVMHEALHNHYTQKSLSLSPG
chain 2: DIQMTQSPSSLSASVGDRVTITCTSDQSLFNVRSGKNYLAWYQQKPGKAPKLLIYWASDRESGVPSRFSGSGSGTDFTLTISSLQPEDFATYYCKQSYDLFTFGGGTKVEIKGGGGSGGGGEVQLVESGGGLVQPGGSLRLSCAASGFTFSSYWMHWVRQAPGKGLEWIGEIKPSNELTNVHEKFKDRFTISVDKAKNSAYLQMNSLRAEDTAVYYCTRTITTTEGYWFFDVWGQGTLVTVSSGCPPCPAPEAAGAPSVFLFPPKPKDTLMISRTPEVTCVVVDVSHEDPEVKFNWYVDGVEVHNAKTKPREEQYNSTYRVVSVLTVLHQDWLNGKEYKCKVSNKALPAPIEKTISKAKGQPREPQVYTLPPCREEMTKNQVSLSCAVKGFYPSDIAVEWESNGQPENNYKTTPPVLDSDGSFFLVSKLTVDKSRWQQGNVFSCSVMHEALHNHYTQKSLSLSPG
Regarding B4, in experiment [1], the “In vitro Cytotoxicity (nM)” value worked out at 0.247 nM. The Kd in experiment [2] was determined as 63.5 nM.
